From article PMC13730216 (2026)

Biological target: CXCL12 (Homo sapiens, UniProt P48061)
Experiment: BLI

Chain of CXCL12 (P48061 22-89): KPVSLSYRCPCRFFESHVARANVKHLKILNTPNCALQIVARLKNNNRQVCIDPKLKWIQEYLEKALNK

Kd: 390 nM
B1: miniCXCR4-WRAP truncated extracellular/ligand-binding part fused to designed WRAP (protein)
chain: MEGISIYTSDNYTEEMGSGDYDSMKEPCFREENANFNKIFLPTIYSIIFLTGIVGNGLVILVMGYQKKLRSMTDKYRLHLSVADLLFVITLPFWAVDAVANWYFGNFLCKAVHVIYTVNLYSSVLILAFISLDRYLAIVHATNSQRPRKLLAEKVVYVGVWIPALLLTIPDFIFANVSEADDRYICDRFYPNDLWVVVFQFQHIMVGLILPGIVILSCYCIIISKLSHSKGHQKRKALKTTVILILAFFACWLPYYIGISIDSFILLEIIKQGCEFENTVHKWISITEALAFFHCCLNPILYAFLGAKFKTSAQHALTS
modifications: truncated CXCR4 with designed loops fused to WRAP; biotinylated CXCL12
